Reference: paper PMC3509445 (Biology Open, 2012)

Assays:
GST-TLX ΔC341-385 = GST-TLX ΔC341-385 (mouse, UniProt Q64104 1-340); experiment: pull-down
GST-TLX ΔN (Δ1-187) = GST-TLX ΔN (Δ1-187) (mouse, UniProt Q64104 188-385); experiment: pull-down
GST-TLX ΔN (Δ1-187), sequence (Q64104 188-385, stated change not applied): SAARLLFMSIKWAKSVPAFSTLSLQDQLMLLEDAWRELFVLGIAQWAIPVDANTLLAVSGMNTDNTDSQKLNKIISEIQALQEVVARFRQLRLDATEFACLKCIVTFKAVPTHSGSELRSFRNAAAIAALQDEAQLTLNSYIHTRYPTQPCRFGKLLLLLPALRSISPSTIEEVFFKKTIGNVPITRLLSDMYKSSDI

GST-TLX ΔC341-385, sequence (Q64104 1-340, stated change not applied): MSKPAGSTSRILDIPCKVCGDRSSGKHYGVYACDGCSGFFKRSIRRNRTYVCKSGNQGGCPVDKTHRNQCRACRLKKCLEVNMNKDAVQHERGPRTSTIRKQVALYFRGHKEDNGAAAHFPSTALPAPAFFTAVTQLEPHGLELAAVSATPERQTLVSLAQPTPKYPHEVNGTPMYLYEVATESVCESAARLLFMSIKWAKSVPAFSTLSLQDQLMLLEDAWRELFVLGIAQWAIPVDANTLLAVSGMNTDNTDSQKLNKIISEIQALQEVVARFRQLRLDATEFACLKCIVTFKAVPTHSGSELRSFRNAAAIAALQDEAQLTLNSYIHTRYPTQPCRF

binding result (GST-TLX ΔC341-385): binds | binding result (GST-TLX ΔN (Δ1-187)): binds
B1: ThioHis-VHL30Δ95-123 (natural protein, UniProt P40337-1 1-213, looked up)
chain: MPRRAENWDEAEVGAEEAGVEEYGPEEDGGEESGAEESGPEESGPEELGAEEEMEAGRPRPVLRSVNSREPSQVIFCNRSPRVVLPVWLNFDGETHDGLLVNQTELFVPSLNVDGQPIFANITLPVYTLKERCLQVVRSLVKPENYRRLDIVRSLYEDLEDHPNVQKDLERLTQERIAHQRMGD
